Test results published in the nanobody polyreactivity screen of Harvey et al. (2022).

Assay: yeast display, Sf9 membrane polyspecificity reagent, FACS + sequencing; frameworks hold sequencing errors
Summary of the method: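 After 36–48 hours of galactose induction, yeast (Saccharomyces cerevisiae BJ5465) displaying a synthetic nanobody library were stained at 4 °C for 1 hour with 10% biotinylated, detergent-solubilized Sf9 membrane reagent. Streptavidin microbeads enriched the stained cells before FACS sorting into low and high (top ~1%) gates on anti-HA and streptavidin fluorescence. Each clone's polyreactivity label reflects its gate of origin.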

| Sequence | polyreactivity (PSR sort gate) |
| --- | --- |
| QVQLVESGGGLVQAGGSLRLSCAASGRILRGYAMGWYRQAPGKERELVAAISWNGGSTYYADSVKGRFTISRDNAKNTVYLQMNSLKPEDTAVYYCAVVFNPHRYTGVLAGYDYWGQGTQVTVSS | high polyreactivity |
| QVQLVESGGGLVQAGGSLRLSCAASGRILRHNAKGWYRQAPGKERELVAAITNGGSTYYADSVKGRFTISRDNAKNTVYLQMNCLKPEDTAVYYCAARTRLAQYSRGRYRYDYWGQGTQVTLSS | high polyreactivity |
| QVQLVESGGGLVQAGGSLRLSCAASGRILRQYAMGWYRQAPGKERELVARISYSGGSTYYADSVKGRFTISRDNAKNTVYLQMNSLKPEDTAVYYCAARRPYKYDYWGQGTQVTVSS | high polyreactivity |
| QVQLVESGGGLVQAGGSLRLSCAASGRILRVNAMGWYRQAPGKERELVATITFRGGSTYYADSVKGRCTISRDNAKNTVYLQMNSLKPEDTAVYSCAKVIYRYNETYDYWGQGTQVTVSS | high polyreactivity |
| QVQLVESGGGLVQAGGSLRLSCAASGRILRYNALGWYRQAPGTERELVASISGNGGSTYYADSVKGRVTISRDNAKNTVYLQMNSLKPEDTALYYCNKYYYSSRGQKEYDYWGQGTQVTVSS | low polyreactivity |
| QVQLVESGGGLVQAGGSLRLSCAASGRILRYNAMGCDRQAPGKERELVASISGNGGSTYYADSVKGRFTISRDNAKNTVYLQMNSLKPEDTAVYYCNKYSYSSRGQKEYDYWGQGTQVTVSS | low polyreactivity |
| QVQLVESGGGLVQAGGSLRLSCAASGRILRYNAMGWYRQAPGKERELVASISGNGGSTYYADSVKGRFTISRDNAKNTVYLQMKSLKPEDTAVYYCNKYYYSSRGQKEYDYWGQGTQVTVSS | low polyreactivity |
| QVQLVESGGGLVQAGGSLRLSCAASGRILSFYVMGWYRQAPGKERELVAAIRRGGSTYYADSVKGRFTISRDNAKNTVYLQMNSLKPEDTAVYYCNARQRPPPYYYWGQGTQVTVSS | high polyreactivity |
| QVQLVESGGGLVQAGGSLRLSCAASGRILSGNAMGWYRQAPGKERELVAAITNAAITKYADSVKGRFTISRDNAKNTVYLQMNSLKPEDTAVYYCATDRYAYKLYDYWGQGTQVTVSS | low polyreactivity |
| QVQLVESGGGLVQAGGSLRLSCAASGRILSGYTMGGYRQAPGKERELVAAINWRGGTTYYADSVKGRFTISRDNAKHTVYLQMNSLKPEDTAVYYCDADYYYQAGFYYWGQGTQVTVSS | low polyreactivity |
| QVQLVESGGGLVQAGGSLRLSCAASGRILSPYAMGWYRQAPGKERELVAVINTSGGRTYYADSVKGRFTISRDNAKNTVYLQMNSLKPEDTAVYYCAARERKVQYDYWGQGTQVTVSS | high polyreactivity |
| QVQLVESGGGLVQAGGSLRLSCAASGRILSTYARGWYRQAPGKETELVAAITRTSGSTYYADSVKGRFTISRDNAKNTVYLQMNSLKPEDTAVDYCAADTWLITWSGQYNSWGQGTQVTVSS | low polyreactivity |
| QVQLVESGGGLVQAGGSLRLSCAASGRILSYYPMGWYRQAPGKERELVAVIRRGASTYADSVKGRFTISRDNAKKTVYLQMNILKPEDTAVYYCAAADRDYTTFRYDYWGQGTQVTVSS | low polyreactivity |
| QVQLVESGGGLVQAGGSLRLSCAASGRILTLNAMGWYRPAPGKERELVASIRSTGRTYYADSVKWRFTISRDNAMNTVYLQMNSLKPEDTAVYYCAADTRYRYGAYPYYEYDYWGQGTQVTVSS | low polyreactivity |
| QVQLVESGGGLVQAGGSLRLSCAASGRILTYNTMGWYRQAPGKERELVAAITWRGGSTYYADSVKGRFTISRDNAKNTVYLQMNSLKPEDTAVYYCAKYVAFHYKQYDFNWGQGTQVTVSS | high polyreactivity |
| QVQLVESGGGLVQAGGSLRLSCAASGRILVHNAMGWYRQAPGKERELVAAITWSGGSTYYADSVKGRFTISRDNAKNTFYLQMNSLKPEDTAVYYCAAEQWRYDGSFTGYGYWGQGTQVTVSS | low polyreactivity |
| QVQLVESGGGLVQAGGSLRLSCAASGRILVKNTMGWYRQAPGKERELVAAITSAGNTYYADSVKGRFTITRDNAKNSVYFQMNSLTPEATAVYYCAARNRTFFQPTYYYWGQGTQVTVSS | high polyreactivity |
| QVQLVESGGGLVQAGGSLRLSCAASGRILVSYAMGWYRQAPGKERELVAAISRSGGSTYYADSVKGRFTISRDNAKNSVYLQMNSLKPEDSAVYYCNVYRFSRYDYWGQGTQVTVSS | high polyreactivity |
| QVQLVESGGGLVQAGGSLRLSCAASGRILWAYAMGWYRQAPGKEREFVAAISWSTGSTYYADSVKGRFTISRDNAKNTVNIQLNSLQPDDTAVYYCAAQLAKTIRGRGYNSWGQGTQVTVSS | low polyreactivity |
| QVQLVESGGGLVQAGGSLRLSCAASGRILYHYAMGWYRQAPGKERELVAAITFSGDTTYYADSVKGRFTISRDNAKNTVYLQMNSLKPEDTAVYYCNTDYYWNYVSRLYDYWGQGTQVTVSS | high polyreactivity |
| QVQLVESGGGLVQAGGSLRLSCAASGRILYPYAMGWYRQAPGKERELVAAISSRSANTYYADSVKGRFTISRDNAKNTVYLQMNSLKPEDTAVYYCAARSLGLGFGHWGQGTQVTVSS | high polyreactivity |
| QVQLVESGGGLVQAGGSLRLSCAASGRILYRYVMGRYRQAPGKERELVAGISWSGGSTYYADSVKGRFTISSDTAKNTVYLQMNSLKPEVTAVYYCASTFRTYAPRPYQGDYWGQGTQVTVSS | low polyreactivity |

| Sequence | polyreactivity (PSR sort gate) |
| --- | --- |
| QVQLVESGGGLVQAGGSLRLSCAASGRILYSYAMGWYRQEPGQEREFVAAIRRSGGSTYYADSVKGRFTISRDNAQNTVYLQMNSLKPEETAVDYCAAGRRSSGSYDYWGQGTQVTVSS | high polyreactivity |
| QVQLVESGGGLVQAGGSLRLSCAASGRILYVNAMGWSRQAPGKERELVAAISWRGGRTYYADSVKGRFTISRDTAKNTVYLQMNSLKPEDTAVYYCAARARGGYQRDYWGQGTQVTVSS | high polyreactivity |
| QVQLVESGGGLVQAGGSLRLSCAASGRILYYYAMGWSRQAPGKERELVAGITTDDSTNYADSVKGRFTISRDNAKNTVYLQMNSLKPEDTAVYYCAAKYVHGEYDYWGQGTQVTVSS | low polyreactivity |
| QVQLVESGGGLVQAGGSLRLSCAASGRILYYYAMGWYRQAPGKERELVAAITWGGGSTYYADSVKGRFTISRDNAKKSVYLQMNSLTPEETAVYYCNRTFRSRLPTSRGYEYWGQGTQVTVSS | low polyreactivity |
| QVQLVESGGGLVQAGGSLRLSCAASGRIRYAMGWYRQAPGKERELVAGIRWSGTSTYYADSVKGRFTISRDNAKNTVYLQMNSLKPEDTAVYYCNAKAQSRYVRYGYWGQGTQVSVSS | high polyreactivity |
| QVQLVESGGGLVQAGGSLRLSCAASGRISDFYAMGWNRQAPGKEREFVAAMSWSGGSTSYADSVKGRFTISRDNAKNTVYLQMNSLKPEDTSVYYCSAKGSRGNSAWYGYWGQGTQVTVSS | high polyreactivity |
| QVQLVESGGGLVQAGGSLRLSCAASGRISDRNAMGWYRQAPGKERELVATIRSGGSTNYADSVKGRFTISPDNAMNTVYLQMNSLKPEDTAVYYCATAKLTWRSQGLDYWGQGTQVTVSS | low polyreactivity |
| QVQLVESGGGLVQAGGSLRLSCAASGRISGINVMGWYRQAPGKERELVAAISRSGARTYYADSVKGRFTISRDNAKNTVYLQMNSLKPEDTAVYYCNAANLKYPKYVQGDYWGQGTQVTVSS | high polyreactivity |
| QVQLVESGGGLVQAGGSLRLSCAASGRISHYNAMGWYRQAPGKERELVAAISSRGGSTYYADSVKGRFTISRDIAKNTVYLQMNSLKPEDTAVYYCADTAGYWGQGTQVTVSS | high polyreactivity |
| QVQLVESGGGLVQAGGSLRLSCAASGRISIWYDMGWYRQAPGKERELVASITSGGSTYADSVKGRFTISRDNAKNTVYLQMNSLKPEDTAVYYCAADEAPYGTSEQRHSRFSHWGQGTQVTVSS | low polyreactivity |
| QVQLVESGGGLVQAGGSLRLSCAASGRISLRILWDGIDRRLGKKGSWLPLLTNTGSTNYADSVKGRFTISRDNAKNTVYLQMNSLKPEDTAVYDCNADPTGGSSYPAYFEYDYWGQGTQVTVSS | low polyreactivity |
| QVQLVESGGGLVQAGGSLRLSCAASGRISLSNAMGWYKQAPGKEREFVAAITKRSDRTYYADSVKGRFTISRDNAKNTVYLQMNSLKPEDTAVYYCAAKPLFGTRDDYWGQGTQVTVSS | low polyreactivity |
| QVQLVESGGGLVQAGGSLRLSCAASGRISPSYAMGWYRHATGKERELVAAISRGGSTSYADSVKGLFTISRDNAKNTVYLQMNSLKPEDTAVYYCSTRGPRYRNYYWGQGTQVTVSS | high polyreactivity |
| QVQLVESGGGLVQAGGSLRLSCAASGRISRLNAMGWYRQAPGKERELVATISGRGGGTYYADSVKGRFTISRDNAKNTVYLQMNSLKPEDTAVYYCAVRGLYQGRRRYSSEYDYWGQGTQVTVSS | high polyreactivity |
| QVQLVESGGGLVQAGGSLRLSCAASGRISRTNAMGWYRQAPGKERELVATITRGGNTNYADSVKGRFTISRDNAKNTVYLPMNSLKPEDTAVYYCAALGRYLRTYRGYVWQFDSWGQGTKVTVSS | high polyreactivity |
| QVQLVESGGGLVQAGGSLRLSCAASGRISRVYAMGWYRQAPGKERELVASITGRGGSTYYADSVKGRFTISRDNAKNTVYLQMNSLKPEDTAVYYCAALIDVITGQYDYWGQGTQVTVSS | high polyreactivity |
| QVQLVESGGGLVQAGGSLRLSCAASGRISSSYAMGWYRQAPGKERELVAAIDNSDDTTYYADSVKGRFTISLDNAKNTVYLQMNSLKPEDTAVYSCATLVYSSELGYWGQGTQVTVSS | high polyreactivity |
| QVQLVESGGGLVQAGGSLRLSCAASGRISSSYDMGWYIQAPAKDRELVAAISSGSSTYYAHSVKVRFTISRDNAKNTVYLQMNSLKREDTAVYYCAKLHYAHYWGQGTQVTVSS | low polyreactivity |
| QVQLVESGGGLVQAGGSLRLSCAASGRISTRYTMGWYRQAPGKERELVAAISGNAGRTYYADSVKGRFTISRDNAKNTVYVQMNSLKPADTAVYYCARESGYRAYEIQFYYWGQGTQVTVSS | high polyreactivity |
| QVQLVESGGGLVQAGGSLRLSCAASGRISTTYSMGWYRPAPGKERELVAAITIGGGTNYADSVKGRFTISRDNAKNTVYLQMNSLKPEDTAVFYCNADRTASFAYDYWGQGTQVTVSS | low polyreactivity |
| QVQLVESGGGLVQAGGSLRLSCAASGRISVKYAMGWYRQAPGKERELVAANDSSGGSTSYADSVKGRFTISRDNAKNTVYLQMNSLKPEDTAVYYCADDTWYRAGYFVFYYDYWGQGTQVTVSS | low polyreactivity |
